Results taken from patent US20230303690A1 (published 2023).

T1: human LAG3 expressed on cells (human, UniProt P18627 23-525)
T1 sequence (looked up): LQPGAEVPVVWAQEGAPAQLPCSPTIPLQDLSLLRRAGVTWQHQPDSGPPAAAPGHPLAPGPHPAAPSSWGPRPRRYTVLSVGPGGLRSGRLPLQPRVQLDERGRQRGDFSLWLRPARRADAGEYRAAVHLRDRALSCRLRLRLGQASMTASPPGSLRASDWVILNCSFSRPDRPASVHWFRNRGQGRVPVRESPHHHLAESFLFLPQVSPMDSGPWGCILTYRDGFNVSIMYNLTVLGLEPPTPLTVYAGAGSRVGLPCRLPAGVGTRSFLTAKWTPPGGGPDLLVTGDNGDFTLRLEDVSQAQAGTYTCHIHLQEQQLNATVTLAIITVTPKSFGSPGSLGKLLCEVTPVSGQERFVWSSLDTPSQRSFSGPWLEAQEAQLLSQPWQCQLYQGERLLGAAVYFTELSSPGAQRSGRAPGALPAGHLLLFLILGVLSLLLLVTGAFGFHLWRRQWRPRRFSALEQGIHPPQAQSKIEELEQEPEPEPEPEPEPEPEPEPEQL

T2: LAG3 Protein, Human, Recombinant (His Tag) (Sino Biological Catalog No. 16498-H08H) (human, UniProt P18627 23-450)
T2 construct: Bought protein; also called hLAG3-His; LAG3-His; not shown: His tag
T2 sequence (looked up): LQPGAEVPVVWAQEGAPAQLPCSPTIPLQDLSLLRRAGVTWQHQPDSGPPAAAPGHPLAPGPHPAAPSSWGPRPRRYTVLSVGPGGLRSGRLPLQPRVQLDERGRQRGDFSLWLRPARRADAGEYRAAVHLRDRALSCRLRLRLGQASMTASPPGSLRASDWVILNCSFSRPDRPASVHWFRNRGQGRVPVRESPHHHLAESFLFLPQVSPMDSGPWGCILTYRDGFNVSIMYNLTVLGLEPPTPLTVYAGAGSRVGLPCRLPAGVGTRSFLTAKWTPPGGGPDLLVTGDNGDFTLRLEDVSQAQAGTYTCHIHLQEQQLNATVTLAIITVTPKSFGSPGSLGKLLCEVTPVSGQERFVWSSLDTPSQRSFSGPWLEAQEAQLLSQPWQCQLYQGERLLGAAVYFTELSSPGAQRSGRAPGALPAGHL

B1: sdAb No. 25 (VHH)
VHH: QLQLVESGGGLVQAGGSLRLSCAASGSIESFSFMGWYRQAPGKQRELVAGFTGAASLSFSTYTDAVKGRFTISRDNAKNTVYLQMNSLKPEDTAVYFCNVDPWSQSWPGRYWGQGTQVTVSS
notes: Fc of the tested form not described; also called sdAb 25; sdAb #25; not shown: Fc part implied by anti-human Fc capture and anti-human IgG Fc detection
B2: sdAb No. 27 (VHH)
VHH: QVQLVESGGGLVQPGGSLRLSCAASGFTLDYYAIGWFRQAPGKEREGVSCIRSSDGSTYYADSVKGRFTISSDNTKNTVYLQMNSLKPEDTAVYYCATDRYSDCRGPYENWGQGTQVTVSS
notes: Fc of the tested form not described; also called sdAb 27; not shown: Fc part implied by anti-human Fc capture and anti-human IgG Fc detection
B3: sdAb No. 17 (VHH)
VHH: QLQLVESGGGLVQPGGSLRLSCAASGLTLDGYAIGWFRQAPGKEREGLACISGSDGSTHYLDSVKGRFTISRDNGKNTMALQMNSLQFGDTAIYYCAARRGSCSGSWTYWGQGTQVTVSS
notes: Fc of the tested form not described; also called sdAb 17; not shown: Fc part implied by anti-human Fc capture and anti-human IgG1 Fc detection

Tests used:
[1] = target: T1, human LAG3 expressed on cells; assay: cell-based or functional assay
[2] = target: T1, human LAG3 expressed on cells; assay: cell-based or functional assay; remark: listed apart in the source
[3] = target: T2, LAG3 Protein, Human, Recombinant (His …); assay: SPR binning on LAG3-His; competitor 1
Procedure: (§1) The chip surface was regenerated after each cycle with 25 mM NaOH followed by HBS-EP wash provided in the kit.

[4] = target: T2, LAG3 Protein, Human, Recombinant (His …); assay: SPR binning on LAG3-His; competitor 17
Procedure: as §1

[5] = target: T2, LAG3 Protein, Human, Recombinant (His …); assay: SPR binning on LAG3-His; competitor 18
Procedure: as §1

[6] = target: T2, LAG3 Protein, Human, Recombinant (His …); assay: SPR binning on LAG3-His; competitor 20
Procedure: as §1

[7] = target: T2, LAG3 Protein, Human, Recombinant (His …); assay: SPR binning on LAG3-His; competitor 21
Procedure: as §1

[8] = target: T2, LAG3 Protein, Human, Recombinant (His …); assay: SPR binning on LAG3-His; competitor 24
Procedure: as §1

[9] = target: T2, LAG3 Protein, Human, Recombinant (His …); assay: SPR binning on LAG3-His; competitor 25
Procedure: as §1

[10] = target: T2, LAG3 Protein, Human, Recombinant (His …); assay: SPR binning on LAG3-His; competitor 27
Procedure: as §1

[11] = target: T2, LAG3 Protein, Human, Recombinant (His …); assay: SPR binning on LAG3-His; competitor 37
Procedure: as §1

[12] = target: T2, LAG3 Protein, Human, Recombinant (His …); assay: SPR binning on LAG3-His; competitor 73
Procedure: as §1

[13] = target: T2, LAG3 Protein, Human, Recombinant (His …); assay: SPR binning on LAG3-His; competitor BMS
Procedure: as §1

[14] = target: T2, LAG3 Protein, Human, Recombinant (His …); assay: SPR (Biacore), sdAb captured by anti-human Fc, LAG3-His analyte
Procedure: The binding of the single domain antibodies to recombinant human LAG3 protein (rhLAG3) was examined by Biacore™ assay. […] The coating was carried out according to the manufacturer’s instructions accompanying the kit (Catalog No. BR-1008-39, GE). […] The chip surface was regenerated after each cycle with 25 mM NaOH followed by HBS-EP wash provided in the kit.

Binder	IL-2, % of BMS, at 0.005080526 ug/mL [1] [%]	IL-2, % of BMS, at 0.015241579 ug/mL [1] [%]	IL-2, % of BMS, at 0.045724737 ug/mL [1] [%]	IL-2, % of BMS, at 0.137174211 ug/mL [1] [%]	IL-2, % of BMS, at 0.411522634 ug/mL [1] [%]	IL-2, % of BMS, at 1.234567901 ug/mL [1] [%]	IL-2, % of BMS, at 3.703703704 ug/mL [1] [%]	IL-2, % of BMS, at 11.11111111 ug/mL [1] [%]	IL-2, % of BMS, at 33.33333333 ug/mL [1] [%]	IL-2, % of BMS, at 100 ug/mL [1] [%]	EC50 for IL-2 rescue, hLAG3 Jurkat T system [2] [nM]	Efficacy (IL-2 production, BMS = 100%) [2] [%]	RU [3] [RU]	RU [4] [RU]	RU [5] [RU]	RU [6] [RU]	RU [7] [RU]	RU [8] [RU]	RU [9] [RU]	RU [10] [RU]	also measured
B1	3.24	-0.59	8.03	2.39	9.2	25.1	30.6	34.1	39.8	53.7	8.12	43.4	44.7	41	39	44.6	49.3	46.4	7.2	50.9	RU [11]: 44.1 RU; RU [12]: 47.6 RU; RU [13]: 31.7 RU; Kd [14]: 0.017 nM; koff [14]: 0.000108 s⁻¹; kon [14]: 6.31e+06 M⁻¹ s⁻¹
B2	5.57	13.4	12.1	18	27.3	36.5	43.4	50	52.9	52.8	8.49	50.2	-9.1	-11.7	-9.6	-11.7	-10.1	-10.1	34	-6.2	RU [11]: -9.1 RU; RU [12]: -15.1 RU; RU [13]: 48.2 RU; koff [14]: 4.09e-07 s⁻¹; kon [14]: 1.17e+07 M⁻¹ s⁻¹
B3	5.97	9.56	9.97	18	22.3	26.5	31.4	38	38	42.2	7.72	46.5	-13.6	-2	-7.5	-14.6	-12.5	-10.4	17.9	-7	RU [11]: -13.4 RU; RU [12]: -17 RU; RU [13]: 15.2 RU; Kd [14]: 0.181 nM; koff [14]: 0.0012 s⁻¹; kon [14]: 6.6e+06 M⁻¹ s⁻¹
